Holding throughout (experiment): two-hybrid library CCNG1;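 note: natural log of median RNA to DNA barcode read ratio; higher means stronger binding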
Assay [1] addresses T1, 4H967-bN.
T1 chain: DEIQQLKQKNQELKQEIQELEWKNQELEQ

Assay [2] addresses T2, 4H3606-bN.
T2 chain: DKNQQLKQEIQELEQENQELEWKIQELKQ
Particulars: mean of both orientations.

Assay [3] deals with T3, 4H568-bN.
T3 chain: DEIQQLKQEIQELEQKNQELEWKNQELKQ

Assay [4] has as its target T4, 4H953-bN.
T4 chain: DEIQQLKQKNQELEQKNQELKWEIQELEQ

Assay [5] concerns the target T5, 4H3782-bN.
T5 chain: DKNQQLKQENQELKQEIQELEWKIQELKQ

For assay [6], the target named is T6, 4H687-bN.
T6 chain: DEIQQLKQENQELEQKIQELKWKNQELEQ

Assay [7] has as its target T7, 4H4001-bN.
T7 chain: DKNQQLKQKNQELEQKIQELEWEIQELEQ

Assay [8] concerns the target T8, 4H883-bN.
T8 chain: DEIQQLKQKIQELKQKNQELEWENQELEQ

Assay [9] addresses T9, 4H72-bN.
T9 chain: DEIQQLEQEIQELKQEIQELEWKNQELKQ

The target in assay [10] is T10, 4H3843-bN.
T10 chain: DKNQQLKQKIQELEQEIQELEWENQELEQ

For assay [11], the target named is T11, 4H918-bN.
T11 chain: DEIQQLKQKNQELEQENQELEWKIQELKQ

In assay [12] the target is T12, 4H797-bN.
T12 chain: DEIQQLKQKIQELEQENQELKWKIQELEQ

For assay [13], the target named is T13, 4H607-bN.
T13 chain: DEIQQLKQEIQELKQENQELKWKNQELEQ

For assay [14], the target named is T14, 4H462-bN.
T14 chain: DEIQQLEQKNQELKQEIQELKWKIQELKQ

The target in assay [15] is T15, 4H370-bN.
T15 chain: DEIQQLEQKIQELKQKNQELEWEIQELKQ

Assay [16] addresses T16, O8-bS.
T16 chain: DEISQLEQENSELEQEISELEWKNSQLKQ

In assay [17] the target is T17, O9-bS.
T17 chain: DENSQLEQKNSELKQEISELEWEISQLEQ

Assay [18] concerns the target T18, O4-bS.
T18 chain: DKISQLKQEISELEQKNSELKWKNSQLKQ

The target in assay [19] is T19, O5-bS.
T19 chain: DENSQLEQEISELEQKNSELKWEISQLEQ

For assay [20], the target named is T20, O7-bS.
T20 chain: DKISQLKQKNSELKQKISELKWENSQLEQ

Assay [21] has as its target T21, O6-bS.
T21 chain: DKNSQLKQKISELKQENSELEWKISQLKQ

Assay [22] has as its target T22, P9mSN.
T22 chain: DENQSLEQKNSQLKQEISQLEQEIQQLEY

We go through three molecules from publication PMC10397247.

DKNQQLKQEIQELEQENQELEWKIQELKQ [4H3606-bN]: the interaction score in assay [1] is -1.43; in assay [2] it was -0.385; in [3], 1.07; in assay [4] it was -0.614; in assay [5] it was -0.77; in [6], 0.128. Also, the interaction score in assay [7] is -0.219; in assay [8], -1.5; in assay [9], -0.312; in assay [10] it was -0.0433; in [11] it was -0.149; in assay [12], -0.386. For the same molecule, the interaction score was 0.0432 in [13], -0.288 in [14] and -0.0845 in [15].

On to DKISQLKQEISELEQKNSELKWKNSQLKQ [O4-bS], for which the interaction score in [16] was -2.55; in assay [17], 0.414; in assay [18], -1.26; in assay [19] it was -0.823; in [20] it was -0.221; in assay [21] it was 0.143.

On to DENQSLEQKNSQLKQEISQLEQEIQQLEY [P9mSN], for which the interaction score in assay [22] is -1.56.
